Each block holds one binder with its values, some of them ahead of it.
Tests used:
[1] = target: T1, TROP2 on BXPC-3 and MCF-7 cells (human, UniProt P09758 27-323); assay: flow cytometry on BXPC-3 cells, 1 hr at 4 C, FITC-labelled secondary antibody
T1 construct: whole, on cells; also called BxPC-3 cells; MCF-7 cells (positive cells)
T1 sequence (looked up): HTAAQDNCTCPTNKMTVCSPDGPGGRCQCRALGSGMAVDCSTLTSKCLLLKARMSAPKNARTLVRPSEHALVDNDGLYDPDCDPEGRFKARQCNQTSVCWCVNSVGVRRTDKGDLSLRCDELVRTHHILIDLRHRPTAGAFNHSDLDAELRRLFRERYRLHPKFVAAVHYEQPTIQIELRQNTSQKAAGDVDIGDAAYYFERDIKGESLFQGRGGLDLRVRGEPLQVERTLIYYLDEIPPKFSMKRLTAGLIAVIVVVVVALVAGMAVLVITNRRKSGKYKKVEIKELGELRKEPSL

[2] = target: T2, TROP2 antigen (extracellular region of TROP2, expressed in 293F cells) (human, UniProt P09758 27-274); assay: BLI (ForteBio Octet), biotin-labelled antigen on streptavidin sensor, antibody in solution
T2 construct: extracellular domain; The antigen was coated on ELISA plates; For the Octet assay it was biotin-labelled and immobilized on streptavidin sensors; also called TROP2 protein
T2 sequence (looked up): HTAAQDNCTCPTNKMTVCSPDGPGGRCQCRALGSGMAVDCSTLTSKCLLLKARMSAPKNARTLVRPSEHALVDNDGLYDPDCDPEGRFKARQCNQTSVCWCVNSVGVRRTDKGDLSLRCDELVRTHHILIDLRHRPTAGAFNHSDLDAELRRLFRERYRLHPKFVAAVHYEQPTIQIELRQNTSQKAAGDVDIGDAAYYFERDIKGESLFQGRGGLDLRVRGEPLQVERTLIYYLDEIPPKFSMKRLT
Source text: Pall ForteBio Octet optical analysis technology platform is used to evaluate the absolute affinity of antibody-antigen binding. In this method, the biotin-labeled antigen is immobilized on the surface of the streptavidin biosensor chip, the baseline is balanced for 180 seconds, and then it binds with the antibody diluted in the solution concentration gradient for 30 seconds, which increases the optical thickness of the chip, resulting in The wavelength shifts (Δλ), and then enters the dissociation phase of 30 sec. The interaction between the Trop2 antigen and the corresponding antibody is measured in real time, and the specificity of binding, binding rate, dissociation rate or sample concentration are precisely and accurately measured at each concentration. After summarizing the k-on and k-off values under at least 5 concentration gradients, the KD binding constant is obtained.

[3] = target: T2, TROP2 antigen (extracellular region of …); assay: competition ELISA on TROP2-coated plate; competitor: 0.5 ng/ml 4D3-humanized-biotin
Protocol: The 4D3-humanized antibody was labeled with biotin, and the inflection point value of the binding curve was determined by ELISA to be 0.5 ng/ml. Prepare an ELISA blocking solution containing 0.5 ng/ml 4D3 biotin-labeled antibody, and configure 50 ug/ml of competing antibodies 4D3-chimeric and 4D3-humanized on the basis of this solution. Add the solution containing biotin-labeled antibody and competing antibody to A1˜A12, 150 ul per well, then aspirate 50 ul and add to B2˜B12, mix well with the pre-added biotin antibody solution with a volume of 100 ul, and then dilute 3 times in sequence To H1˜H12, incubate at 37° C. for 1 hr, then wash and incubate the […], incubate at 37° C. for 1 hr, then wash 3 times, perform color development for 25 min and read the value.
FIG. 12: 4D3-humanized-biotin antibodies compete with ch4D3 and hum4D3 antibodies at 0.02-50 ug/ml, respectively. The two competing antibodies show the same degree of competitive activity and bind to the same epitope.

[4] = target: T2, TROP2 antigen (extracellular region of …); assay: ELISA, TROP2-coated plate, anti-human Fc HRP
[5] = target: T2, TROP2 antigen (extracellular region of …); assay: ELISA on a TROP2-coated plate, anti-human Fc HRP detection
Protocol: (§1) Dilute the chimeric antibody to a concentration of 50 ug/ml, add it to wells A1˜H1 on the TROP2-coated ELISA plate, and then perform a 3-fold horizontal dilution from A1 to A12; incubate at 37° C. for 1 hr, then rinse and add Mouse anti-human Fc HRP-labeled antibody was incubated at 37° C. for color development.

[6] = target: T2, TROP2 antigen (extracellular region of …); assay: ELISA, TROP2-coated plate, chimeric antibody, anti-human Fc HRP
Protocol: as §1

[7] = target: T2, TROP2 antigen (extracellular region of …); assay: competition ELISA on TROP2-coated plate; competitor: 7F11-humanized-biotin
[8] = target: T1, TROP2 on BXPC-3 and MCF-7 cells; assay: flow cytometry on MCF-7 cells, 1 hr at 4 C, FITC-labelled secondary antibody
[9] = target: T1, TROP2 on BXPC-3 and MCF-7 cells; assay: flow cytometry on BXPC-3 cells, 1 hr at 4 C, FITC-labelled secondary antibody; remark: listed apart in the source

- EC50 (read off the curve) [1]: ~0.04 µg/mL
- Kd [2]: 30.7 nM
- koff [2]: 0.00428 s⁻¹
- kon [2]: 139000 M⁻¹ s⁻¹
- EC50 [3]: 0.326 µg/mL
- EC50 [4]: 0.0502 µg/mL
B1: 4D3 humanized antibody (antibody, V domains shown)
VH: QVQLVQSGAEVKKPGASVKLSCKASGYTFTSFDINWVRQAPEQRLEWMGWIFPGDGNTKYSQKFQGRATITRDTSASTAYMELSSLRSEDTAVYYCVRGEALYYFDYWGQGTLVTVSS
VL: DIQMTQSPSSLSASVGDRVTITCRASQDINKYLAWYQQKPGKVPKLLIYSTSTLQSGVPSRFSGSGSGTDFTLTISSLQPEDVATYYCLQYDDLFTFGQGTKLEIKR
notes: also called Hu4D3; hu4D3

- Kd [2]: 6.89 nM
- koff [2]: 0.00162 s⁻¹
- kon [2]: 235000 M⁻¹ s⁻¹
- EC50 (read off the curve) [5]: ~0.05 µg/mL
- EC50 [3]: 0.336 µg/mL
- EC50 [4]: 0.056 µg/mL
- EC50 [6]: 0.047 µg/mL
B2: 4D3 chimeric antibody (antibody, human IgG1, kappa, V domains shown)
VH: QVQLQQSGAELVKPGASVKLSCKASGYTFTSFDINWVRQRPEQGLEWIGWIFPGDGNTKSNEKFKGKATLTTDKSSSTAYMQLSRLTSEDSAVYFCVRGEALYYFDYWGPGTTLTVSS
VL: DIQMTQSPSSLSASLGGKVTITCKPSQDINKYIAWYQHKPGKGPRLLIHSTSTLQPGIPSRFSGSGSGRDYSFTISNLEPEDIATYYCLQYDDLFTFGSGTKLEIKR
notes: The entries begin with a leader (signal) peptide; also called ch4D3

- Kd [2]: 0.0611 nM
- koff [2]: 1.45e-05 s⁻¹
- kon [2]: 243000 M⁻¹ s⁻¹
- EC50 (read off the curve) [5]: ~0.07 µg/mL
- EC50 [4]: 0.061 µg/mL
- EC50 [7]: 0.732 µg/mL
- EC50 [6]: 0.071 µg/mL
B3: 7F11 chimeric antibody (antibody, human IgG1, kappa, V domains shown)
VH: QVQLQQSGPEVVKPGASVKMSCKASGYTFTDHVISWVKQRTGQGLEWIGQIYPGSDNSYYSEKLKDKATLTADKSSNTAYMQLVSLTSEDSAVYFCAREGYGYGKNGVGYAMDYWGQGTSVTVSS
VL: SIVMTQTPKFLLVSAGDRVTITCKASQSVSNDVVWYQQKPGQSPKLLIYYASNRYTGVPDRFTGSGYGTDFTFTISTAQAEDLAVYFCQQDYSSPWTFGGGTKLEIKR
notes: The entries begin with a leader (signal) peptide; also called ch7F11

- Kd [2]: 0.0994 nM
- koff [2]: 1.85e-05 s⁻¹
- kon [2]: 186000 M⁻¹ s⁻¹
- EC50 [4]: 0.0601 µg/mL
- EC50 (read off the curve) [8]: ~0.04 µg/mL
- EC50 [7]: 0.856 µg/mL
- EC50 (read off the curve) [9]: ~0.05 µg/mL
B4: 7F11 humanized antibody (antibody, V domains shown)
VH: QVQLVQSGAEVKKPGASVKVSCKASGYTFTDHVISWVRQATGQGLEWMGQIYPGSDNSYYAQKFQGRVTLTADKSINTAYMELSSLRSEDTAVYYCAREGYGYGKNGVGYAMDYWGQGTLVTVSS
VL: DIVMTQSPDSLAVSLGERATINCKASQSVSNDVVWYQQKPGQPPKLLIYYASNRYTGVPDRFSGSGYGTDFTLTISSLQAEDVAVYYCQQDYSSPWTFGGGTKVEIKR
notes: also called Hu7F11; hu7F11

Reference: patent US20230242665A1 (SYSTIMMUNE, published 2023)
